Experimental data taken from the DeepSol protein solubility set.

Assay: soluble on expression in E. coli; label from the status in PepcDB or PDB records

Q: With “MKEQNESFVVDFVGGAVGHRFRSGEGRGQALPKAAGFTKGRTPKIVDATAGLGRDAFLLASLGAEVTLIERSPGMHAHLADGISRALEAGGAYAEAASRMTLLQGDSRQLLKELSPEVVVIDPMHPPRHNTALVKKEMRVLRELVGSDPDQVELMEVALAHATKRVVLKWPLRADPMPGIRKPSHQIIGKNTRYDVFMIFGNSLDQQELEHHHHHH” as the sequence, how does the “soluble on expression in E. coli” value read?
A: Its value is “soluble”.

Q: Which “soluble on expression in E. coli” value does the source give for “MKNKPLGLWLMSLLVLVGCKANQDDLTSYVAQVEREARKEVTKLKPILEFEATPYQQHKGREPFVLPKEALVQNQPLAKADCWQPVPRAKNGPLERYPLHQLRLKGVMSSGGSISALVQTPAGSVVKVKAGQYVGINNGKVTRVDDNYLLINETLPDGLGCWNQRNVKLALK” here?
A: The value was “not soluble”.

Q: Which “soluble on expression in E. coli” value does the source give for “MSLIIRTDTSPHRAAAKLSPNELTLTGARLVLPDEVYDGTVHIIDGYIDDIAAGRSTVPGAIDLEGGYVTPGLIDLHTDNSEKHALPRAGVVWNHLSAVMAHDALVIAAGITTVFDSLCIGSTTRDHTRQADRARILPVLIDGIREARAHGLLRADHFLHLRCEVTDEEVMSVFTPLVGDPLVKLVSVMDHAPGHRQSPQLDRFREMQIKQYGWSAEDADRRIEAWIDASRTIGPQNRSRIIALARARQLPLASHDDQTPEHVREANDAGVLISEFPTTRAAAEIARSLGICILMGAPNIVRGSSHSGNISARELATTGHLDILASDYVPASLLHGAFQLTRDPIGMSLTKAISTVSSVPASVTGFCDRGMIGIGGRADLCHIVEIADIPVVRGVWRQGRQVFEGHHHHHH” here?
A: The value was “not soluble”.

Q: For “MSLETDDQYYRAIKKIKEAAEASNRAYLTSSKLADMLGISQQSASRIIIDLEKNGYITRTVTKRGQILNITEKGLDVLYTEFADLSRILAIKNNVVITGTVTSGMGEGRYYVARKQYIIQFQEKLGIIPYLGTLNIKVDQASLPELRKIRGFRGIHIEGFKTEDRTFGSVKAFPAKIQNIPCFVIMPERTVYTDVIEIISDKYLREEINLHDGDRVSVEVYTEGHHHHHH”, which “soluble on expression in E. coli” value is on record?
A: Its value is “soluble”.

Q: With “MSLDTPRIILHNSDTAPLTHWLRAAFPQADFRECNSYEALPALIEGYRPEVVYSVRFAGTPGFPRDALFGPGGPRWIANGGAGTDHYGQWDPGQTTVTNTAGVAAEMMAEYILGGFLHFSLDVPGLQKDKAARVWNARTVRPLAGKTLLIIGLGHTGRAVAARSKAFGMKVLGTRARPKPMENVDEVHAADDLHDLLPHADFIAVSTPLIPATRGLIGAQEIAAMKSGVIFADVSRGGVVDQTALYDALSVGHVAAAALDVFETEPLPEISPLWALENVIISPHCSSVFAEWEEASFELFLQNLGRWMRGEGHHHHHH” as the sequence, how does the “soluble on expression in E. coli” value read?
A: The value was “not soluble”.

Q: Which “soluble on expression in E. coli” value does the source give for “NTIEKEERIKIAVLTEQNQKNRIADYQDREEIYERQRRKMHDYKNQLSTIQTLIKNGHTDEALSFTQKLTESIAVEMSAINTNHPVVNAILNQKYRSMQEKHIAVILKVGDLQEICLEEEEIVILLSNLLDNAIRESEKVLKNTGKAVIHLKLECEDHKLIFAVRNPVTEKVEIENDTIKSKRGDHHGIGLLNVKAVVDKYGGDMVLSCDENEFKAVVIL” here?
A: Its value is “not soluble”.

Q: With “MAAHELKEALETLKETGVRITPQRHAILEYLVNSMAHPTADDIYKALEGKFPNMSVATVYNNLRVFRESGLVKELTYGDASSRFDFVTSDHYHAICENCGKIVDFHYPGLDEVEQLAAHVTGFKVSHHRLEIYGVCQECSKKENH” as the sequence, how does the “soluble on expression in E. coli” value read?
A: Its value is “soluble”.

Q: For “MKFLNQHELTKLLALLDLDHGLDWDYFLLLIAKTGLRFGEALGVTPMDFDMAKLTLTINKTWDYKSATGSFAETKNTASVRKVPLDWQVAMQFAAQIKSLPQDKPIFVTDGQRVYNETANDILERKCKRASIPVISIHGLRHTHASLLLYAGVSVGSVARRLGHANMSTTQKTYLHILEHHHHHH”, which “soluble on expression in E. coli” value is on record?
A: The value was “soluble”.
